Laboratory results: patent US7572594B2, “Screening assays for agonists or antagonists or receptor activator of NF-κB” (Immunex Corporation, priority 2000, dated 2009)

Legend:
[1] = test system: mouse TRAP mRNA; assay: Quantitative RT-PCR of TRAP mRNA in RAW 264.7 cells; format: cell-based; conditions: RANKL/LZ 200 ng/ml or TNFα 20 ng/ml, various times
[2] = test system: mouse MMP-9 mRNA; assay: Quantitative RT-PCR of MMP-9 mRNA in RAW 264.7 cells; format: cell-based; conditions: RANKL/LZ 200 ng/ml or TNFα 20 ng/ml, various times
From the text: MMP-9 mRNA is elevated greater than 350-fold by RANK-L, but is not increased by TNFα. This specificity is helpful in screening for inhibitors of RANK signal transduction.

[3] = test system: MMP-9 promoter (nucleotides 1769-3591 of SEQ ID NO:11); assay: pSIR/MMP-9 hIL-2 αR reporter in RAW264.7 cells, flow cytometry; format: cell-based, murine; conditions: RAW264.7 cells stably expressing pSIR/MMP-9
From the text: The location of the RANK-responsive portion of MMP-9 promoter was more narrowly identified by testing further truncations of the promoter. A PVUII/BGL2 restriction fragment including the 5′-proximal 1822 bp of the MMP-9 promoter was fused with a BLGII/EcoRI restriction fragment encoding the human IL-2 receptor a in the multicloning site of the pSIR retroviral vector (Clontech). The resulting plasmid, which was named pSIR/MMP-9, is responsive to RANK and is useful in assays to identify RANK antagonists. The region of the MMP-9 promoter present in pSIR/MMP-9 corresponds to nucleotides 1769-3591 of SEQ ID NO:11.
pSIR/MMP-9 was introduced into RANK responsive cells as follows. Retroviral particles were prepared after transfection of 293/E packaging cells with pSIR/MMP-9. RAW264.7 cells were infected with these particles and neomycin resistant colonies stably expressing the reporter were isolated. Treatment of these cells with RANKL led to an increase in the cell surface expression of the hIL-2 αR, as detected by flow cytometry using the mouse mAb (clone 2A3) anti-human IL-2 αR as a reagent for detecting the IL-2R. […]
Surface expression of human IL-2α receptor is detected by flow cytometry in the following manner. […] After washing the cells, the fluorescence intensity is measured using a flow cytometer, such as a FACS scan (Becton Dickinson).

[4] = test system: RANK; assay: radioimmune assay of reporter surface expression in 293/EBNA cells; format: cell-based; conditions: 48 hours after transfection
Description: Additionally, surface expression of human IL-2α receptor can be analyzed using a radioactive antibody against IL-2α receptor. For the mIL-4R-specific radioimmune assay, mouse anti-human IL-2α monoclonal antibody reactive with mIL-4R was labeled with ^125I via a Chloramine T conjugation method; the resulting specific activity is typically […]. After 48 hours, cells transfected with pGL2-MMP-9/human IL-2 receptor were washed once with media (DMEM, 12 5% FBS). Non-specific binding sites were blocked by the addition of pre-warmed binding media containing 5% non-fat dry milk and incubation at 37° C./5% CO2 in a tissue culture incubator for one hour. The blocking media was decanted and binding buffer containing ^125I anti-mIL-4R (clone M1; rat IgG1) was added to the cells and incubated with rocking at room temperature for 1 hour. After incubation of the cells with the radio-labeled antibody, cells were washed extensively with binding buffer (2 X) and twice with phosphate-buffered saline (PBS). Cells were lysed in 1 ml of 0.5M NaOH, and total radioactivity measured with a gamma counter.

[5] = test system: endogenous c-jun kinase (JNK); assay: JNK immune-complex kinase assay in transfected 3T3 cells; format: cell-based, murine; conditions: 3T3 cells 24 hours after transfection, absence of RANK-L stimulation
Description: This example describes evaluating murine 3T3 cells transfected with plasmids containing DNA encoding human FEO RANK (SEQ ID NO:9), and murine 3T3 cells expressing recombinant DNA encoding human wild type RANK (SEQ ID NO:1) for their relative ability to activate endogenous c-jun kinase (JNK) in the absence of RANK-L stimulation. JNK is known to be activated as a consequence of RANK signal transduction.
For JNK assays, whole cell extracts were prepared from 3T3 cells 24 hours after transfection. Cells were lysed in a buffer containing 20 mM HEPES, pH 7.4, 2 mM EGTA, 50 mM β-glycerol phosphate, 1 mM DTT, 1 mM sodium orthovanadate, 1% Triton-X 100, 10% glycerol and the protease inhibitors leupeptin, pepstatin A, and PMSF. Clarified lysates were immunoprecipitated with 1 μg each anti-JNK (FL) and anti-JNK (C17) antibodies (both from Santa Cruz Biotechnology, Inc. Santa Cruz, Calif.). […] JNK activity was determined by an immune-complex assay using 1 μg of a fusion protein of glutathione-S-transferase and amino acids 1-169 of […] (GST-cJun (1-169)) (UBI, Lake Placid, N.Y.) and 5 μCi of [^32P]-ATP as substrate in 40 μl of assay buffer at 30° C. for 20 min. […]

Molecule: TNFα [reference compound]
- TRAP mRNA elevation [1]: about 2.3 fold
- MMP-9 mRNA elevation [2]: not increased

B1: RANKL: RANK ligand used to treat RAW264.7 reporter cells; form not specified (protein)
chain: MRRASRDYTKYLRGSEEMGGGPGAPHEGPLHAPPPPAPHQPPAASRSMFVALLGLGLGQVVCSVALFFYFRAQMDPNRISEDGTHCIYRILRLHENADFQDTTLESQDTKLIPDSCRRIKQAFQGAVQKELQHIVGSQHIRAEKAMVDGSWLDLAKRSKLEAQPFAHLTINATDIPSGSHKVSLSSWYHDRGWAKISNMTFSNGKLIVNQDGFYYLYANICFRHHETSGDLATEYLQLMVYVTKTSIKIPSSHTLMKGGSTKYWSGNSEFHFYSINVGGFFKLRSGEEISIEVSNPSLLDPDQDATYFGAFKVRDID
- cell surface expression of the hIL-2 αR [3]: increase
- time to maximal level of hIL-2 α receptor expression [3]: ≤ 48 h

B2: RANK-L: RANK ligand, Type 2 transmembrane protein that binds to and activates RANK; human full-length SEQ ID NO:6 (protein, listed as Homo sapiens)
chain: B1 chain
- transcriptional activation, reporter detected on the cell surface [4]: resulted in transcription of muIL-4R

B3: FEO RANK: mutated form of RANK isolated from patients with familial expansile osteolysis (SEQ ID NOS:9 and 10), expressed from transfected DNA (protein, listed as Homo sapiens)
chain: MAPRARRRRPLFALLLLCALLLLCALLARLQVALQIAPPCTSEKHYEHLGRCCNKCEPGKYMSSKCTTTSDSVCLPCGPDEYLDSWNEEDKCLLHKVCDTGKALVAVVAGNSTTPRRCACTAGYHWSQDCECCRRNTECAPGLGAQHPLQLNKDTVCKPCLAGYFSDAFSSTDKCRPWTNCTFLGKRVEHHGTEKSDAVCSSSLPARKPPNEPHVYLPGLIILLLFASVALVAAIIFGVCYRKKGKALTANLWHWINEACGRLSGDKESSGDSCVSTHTANFGQQGACEGVLLLTLEEKTFPEDMCYPDQGGVCQGTCVGGGPYAQGEDARMLSLVSKTEIEEDSFRQMPTEDEYMDRPSQPTDQLLFLTEPGSKSTPPFSEPLEVGENDSLSQCFTGTQSTVGSESCNCTEPLCRTDWTPMSSENYLQKEVDSGHCPHWAASPSPNWADVCTGCRNPPGEDCEPLVGSPKRGPLPQCAYGMGLPPEEEASRTEARDQPEDGADGRLPSSARAGAGSGSSPGGQSPASGNVTGNSNSTFISSGQVMNFKGDIIVVYVSQTSQEGAAAAAEPMGRPVQEETLARRDSFAGNGPRFPDPCGGPEGLREPEKASRPVQEQGGAKA
- activation of JNK [5]: activated
